Experimental data: patent US20240287547, “GENETIC MODIFICATION” (Peter Biotherapeutics, Inc., published 2024)

Legend:
Test in all cases: cell_activity; U937 RT-PCR; also edits KRAS in HEK293
[1] = target: pb76 DLRRR (7-zinc finger array + triple R element) (artificial)
Source text: (§1) As described above, each plasmid, pb74, pb75, and pb76 was introduced into U937 cells by electroporation. A “no DNA” transfection was used as control. […] post electroporation, cells transfected with these plasmids were detached and collected. Total RNAs from each condition were then extracted by using Trizol reagent. Five hundred nanograms of total RNA was then converted into DNA by reverse transcription (RT) reaction, followed by PCR using a primer set of Pop133 (SEQ ID. NO. 228) and Pop134 (SEQ ID. NO. 229). Three independent experiments were conducted. KRAS mRNA expression was quantitated by calculations of amplification band intensity of RT-PCR KRAS normalized by corresponding that of Ref-BMG using Bio-Rad Imagelab software. Introduction of pb74 (DLR), ob75 (DLRR), and pb76 (DLRRR) inhibit KRAS gene expression more than 50%.

[2] = target: pb75 DLRR (7-zinc finger array + double R element) (artificial)
Source text: as §1

[3] = target: pb74 DLR (7-zinc finger array + single R element) (artificial)
Source text: as §1

Measured: activity

Chain of pb76 DLRRR (7-zinc finger array + triple R element) (artificial) (chain, as listed by the source): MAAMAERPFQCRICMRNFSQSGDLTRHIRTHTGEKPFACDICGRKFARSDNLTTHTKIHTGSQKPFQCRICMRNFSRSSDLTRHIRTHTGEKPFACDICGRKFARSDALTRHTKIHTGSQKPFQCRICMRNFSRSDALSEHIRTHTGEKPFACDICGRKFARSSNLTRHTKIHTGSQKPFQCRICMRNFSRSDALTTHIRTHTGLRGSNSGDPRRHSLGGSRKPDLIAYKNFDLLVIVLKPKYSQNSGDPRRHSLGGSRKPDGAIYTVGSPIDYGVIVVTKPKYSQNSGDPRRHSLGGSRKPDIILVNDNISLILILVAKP
Chain of pb75 DLRR (7-zinc finger array + double R element) (artificial) (chain, as listed by the source): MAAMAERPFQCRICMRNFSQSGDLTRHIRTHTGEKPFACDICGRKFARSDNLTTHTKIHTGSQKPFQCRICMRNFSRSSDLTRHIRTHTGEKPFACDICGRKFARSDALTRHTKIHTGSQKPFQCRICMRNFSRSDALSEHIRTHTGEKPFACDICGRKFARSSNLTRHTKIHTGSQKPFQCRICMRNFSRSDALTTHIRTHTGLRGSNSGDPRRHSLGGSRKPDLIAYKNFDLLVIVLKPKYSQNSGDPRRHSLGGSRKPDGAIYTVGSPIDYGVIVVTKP
Chain of pb74 DLR (7-zinc finger array + single R element) (artificial) (chain, as listed by the source): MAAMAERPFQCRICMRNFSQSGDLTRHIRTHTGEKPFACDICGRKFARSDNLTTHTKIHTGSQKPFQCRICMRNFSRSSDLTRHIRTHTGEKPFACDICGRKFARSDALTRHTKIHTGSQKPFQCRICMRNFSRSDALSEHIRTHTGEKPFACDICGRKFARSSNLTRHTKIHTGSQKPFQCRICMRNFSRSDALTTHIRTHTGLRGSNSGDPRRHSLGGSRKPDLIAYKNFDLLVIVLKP

B1: KRAS exon 1 site (dsDNA)
DNA 1: TTGGAGCTGGTGGCGTAGGCA
DNA 2: TGCCTACGCCACCAGCTCCAA
> 50 % inhibition of KRAS mRNA: all assays above
